Tests used:
[1] = target: T1, RBM39 (RNA-Binding Motif Protein 39)/CAPERα, endogenous in HEK293T cells (UniProt Q14498)
T1 sequence: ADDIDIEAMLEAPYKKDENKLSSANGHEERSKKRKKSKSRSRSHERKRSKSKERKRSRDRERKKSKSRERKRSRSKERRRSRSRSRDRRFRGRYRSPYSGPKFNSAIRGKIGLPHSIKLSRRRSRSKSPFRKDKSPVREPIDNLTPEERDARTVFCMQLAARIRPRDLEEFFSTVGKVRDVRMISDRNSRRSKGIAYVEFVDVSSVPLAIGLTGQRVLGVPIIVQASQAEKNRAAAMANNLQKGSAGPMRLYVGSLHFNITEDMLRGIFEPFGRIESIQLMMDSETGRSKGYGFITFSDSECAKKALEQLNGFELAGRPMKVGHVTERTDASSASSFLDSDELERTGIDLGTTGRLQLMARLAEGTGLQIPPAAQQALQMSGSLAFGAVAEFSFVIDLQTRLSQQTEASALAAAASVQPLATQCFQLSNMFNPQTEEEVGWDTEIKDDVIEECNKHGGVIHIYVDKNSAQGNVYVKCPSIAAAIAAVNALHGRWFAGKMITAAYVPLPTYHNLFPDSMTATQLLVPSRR

[2] = target: V5-tagged IKZF1 protein (UniProt Q13422)
Chain of V5-tagged IKZF1 protein (Q13422 whole entry, looked up): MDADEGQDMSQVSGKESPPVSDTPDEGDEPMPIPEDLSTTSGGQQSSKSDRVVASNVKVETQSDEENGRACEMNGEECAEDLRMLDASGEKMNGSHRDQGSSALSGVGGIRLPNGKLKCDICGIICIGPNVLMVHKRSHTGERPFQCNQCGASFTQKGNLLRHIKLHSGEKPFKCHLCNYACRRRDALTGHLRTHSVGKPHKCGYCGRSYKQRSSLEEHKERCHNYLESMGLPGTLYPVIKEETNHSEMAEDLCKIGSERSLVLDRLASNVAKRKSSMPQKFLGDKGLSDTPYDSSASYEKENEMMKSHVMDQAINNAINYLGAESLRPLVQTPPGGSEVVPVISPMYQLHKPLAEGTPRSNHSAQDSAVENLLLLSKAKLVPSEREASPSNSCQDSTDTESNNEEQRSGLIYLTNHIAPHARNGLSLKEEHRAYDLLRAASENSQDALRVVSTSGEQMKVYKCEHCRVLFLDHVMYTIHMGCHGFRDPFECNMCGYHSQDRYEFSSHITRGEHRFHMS

[3] = target: BRD4, endogenous in HEK293T cells (UniProt O60885)
[4] = target: BRD2, endogenous in HEK293T cells (UniProt P25440)
Chain of BRD2, endogenous in HEK293T cells (P25440 whole entry, looked up): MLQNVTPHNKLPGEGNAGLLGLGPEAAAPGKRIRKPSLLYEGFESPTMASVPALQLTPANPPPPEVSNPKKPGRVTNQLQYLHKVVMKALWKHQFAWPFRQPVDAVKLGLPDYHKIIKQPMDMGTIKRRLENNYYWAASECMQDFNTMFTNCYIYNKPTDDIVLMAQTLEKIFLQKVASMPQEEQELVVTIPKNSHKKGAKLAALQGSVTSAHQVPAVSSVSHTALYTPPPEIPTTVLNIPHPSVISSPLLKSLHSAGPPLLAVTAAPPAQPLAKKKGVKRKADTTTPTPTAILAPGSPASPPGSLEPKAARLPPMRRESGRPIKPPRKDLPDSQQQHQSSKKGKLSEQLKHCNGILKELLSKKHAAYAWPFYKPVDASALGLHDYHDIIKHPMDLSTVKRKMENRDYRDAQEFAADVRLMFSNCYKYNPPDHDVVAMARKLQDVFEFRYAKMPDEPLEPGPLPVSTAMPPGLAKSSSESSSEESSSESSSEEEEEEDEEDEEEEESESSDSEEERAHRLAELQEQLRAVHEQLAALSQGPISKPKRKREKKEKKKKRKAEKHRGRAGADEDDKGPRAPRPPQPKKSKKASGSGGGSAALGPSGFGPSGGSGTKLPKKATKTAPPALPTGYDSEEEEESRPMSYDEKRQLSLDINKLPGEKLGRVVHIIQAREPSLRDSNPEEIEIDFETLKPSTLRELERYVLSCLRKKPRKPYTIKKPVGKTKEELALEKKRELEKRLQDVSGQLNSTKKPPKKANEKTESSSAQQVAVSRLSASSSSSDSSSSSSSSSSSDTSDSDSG

[5] = target: translation termination factor GSPT1, endogenous in HEK293T cells (UniProt P15170)
Chain of translation termination factor GSPT1, endogenous in HEK293T cells (P15170 whole entry): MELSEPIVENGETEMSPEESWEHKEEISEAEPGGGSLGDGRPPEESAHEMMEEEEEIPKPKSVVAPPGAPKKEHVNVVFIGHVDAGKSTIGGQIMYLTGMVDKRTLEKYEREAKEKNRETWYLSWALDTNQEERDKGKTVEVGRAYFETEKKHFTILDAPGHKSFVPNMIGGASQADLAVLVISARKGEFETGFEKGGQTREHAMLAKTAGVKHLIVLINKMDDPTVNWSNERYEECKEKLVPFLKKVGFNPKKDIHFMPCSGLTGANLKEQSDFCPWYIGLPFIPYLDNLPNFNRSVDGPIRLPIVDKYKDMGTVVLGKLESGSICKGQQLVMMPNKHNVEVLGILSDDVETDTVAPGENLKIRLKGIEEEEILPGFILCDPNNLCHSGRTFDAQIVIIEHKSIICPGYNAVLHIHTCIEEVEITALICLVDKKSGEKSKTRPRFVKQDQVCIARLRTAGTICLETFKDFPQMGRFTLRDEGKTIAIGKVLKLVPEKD

[6] = target: VCL (vinculin), endogenous in HEK293T cells (UniProt P18206)
Chain of VCL (vinculin), endogenous in HEK293T cells (P18206 other isoform, or with tags, fused parts or gaps): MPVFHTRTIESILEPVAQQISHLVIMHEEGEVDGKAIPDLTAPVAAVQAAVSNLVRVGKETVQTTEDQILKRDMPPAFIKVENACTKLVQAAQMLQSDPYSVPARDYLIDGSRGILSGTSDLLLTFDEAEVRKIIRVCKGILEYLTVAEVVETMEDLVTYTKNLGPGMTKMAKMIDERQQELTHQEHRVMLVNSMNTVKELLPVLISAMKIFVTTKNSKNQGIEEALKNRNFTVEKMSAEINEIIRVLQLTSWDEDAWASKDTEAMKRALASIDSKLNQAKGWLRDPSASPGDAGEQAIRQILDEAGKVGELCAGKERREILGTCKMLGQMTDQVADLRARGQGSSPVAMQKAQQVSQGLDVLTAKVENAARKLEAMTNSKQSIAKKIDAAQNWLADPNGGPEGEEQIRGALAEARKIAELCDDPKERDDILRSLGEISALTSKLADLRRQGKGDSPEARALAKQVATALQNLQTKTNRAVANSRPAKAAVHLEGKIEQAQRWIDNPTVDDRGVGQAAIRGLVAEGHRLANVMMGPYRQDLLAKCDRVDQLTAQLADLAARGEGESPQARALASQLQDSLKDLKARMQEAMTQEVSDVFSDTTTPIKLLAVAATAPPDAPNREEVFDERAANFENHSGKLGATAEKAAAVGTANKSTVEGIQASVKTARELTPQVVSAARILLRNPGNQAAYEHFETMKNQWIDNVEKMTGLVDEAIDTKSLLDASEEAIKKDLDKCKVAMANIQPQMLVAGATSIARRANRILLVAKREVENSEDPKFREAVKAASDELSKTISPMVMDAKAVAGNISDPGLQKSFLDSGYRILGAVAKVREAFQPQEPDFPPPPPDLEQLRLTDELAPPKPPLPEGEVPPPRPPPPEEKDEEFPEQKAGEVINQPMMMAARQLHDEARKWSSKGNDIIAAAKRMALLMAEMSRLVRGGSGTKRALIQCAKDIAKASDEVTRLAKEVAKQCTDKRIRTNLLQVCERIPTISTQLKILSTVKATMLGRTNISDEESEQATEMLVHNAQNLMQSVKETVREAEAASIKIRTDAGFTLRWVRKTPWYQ

[7] = target: translation termination factor GSPT2, endogenous in HEK293T cells (UniProt Q8IYD1)
Chain of translation termination factor GSPT2, endogenous in HEK293T cells (Q8IYD1 whole entry): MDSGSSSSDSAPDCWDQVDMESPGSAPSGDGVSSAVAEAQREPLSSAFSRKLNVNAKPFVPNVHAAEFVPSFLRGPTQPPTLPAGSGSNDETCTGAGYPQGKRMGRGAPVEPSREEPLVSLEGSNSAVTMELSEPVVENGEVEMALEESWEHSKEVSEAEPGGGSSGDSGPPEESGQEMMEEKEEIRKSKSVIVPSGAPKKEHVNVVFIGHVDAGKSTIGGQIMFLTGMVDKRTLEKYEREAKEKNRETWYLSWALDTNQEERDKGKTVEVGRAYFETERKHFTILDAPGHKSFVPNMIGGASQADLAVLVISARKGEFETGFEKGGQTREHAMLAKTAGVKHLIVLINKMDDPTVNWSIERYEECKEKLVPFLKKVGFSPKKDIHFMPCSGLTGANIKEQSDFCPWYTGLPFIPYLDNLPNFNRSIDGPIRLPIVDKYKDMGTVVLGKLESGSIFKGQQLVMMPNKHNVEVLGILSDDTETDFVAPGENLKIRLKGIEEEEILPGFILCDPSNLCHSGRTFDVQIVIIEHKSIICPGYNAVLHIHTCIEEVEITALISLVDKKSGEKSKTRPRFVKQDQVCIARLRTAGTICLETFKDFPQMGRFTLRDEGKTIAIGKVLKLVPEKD

[8] = target: GLUL (glutamine synthetase), endogenous in HEK293T cells (UniProt P15104)
Chain of GLUL (glutamine synthetase), endogenous in HEK293T cells (P15104 2-373): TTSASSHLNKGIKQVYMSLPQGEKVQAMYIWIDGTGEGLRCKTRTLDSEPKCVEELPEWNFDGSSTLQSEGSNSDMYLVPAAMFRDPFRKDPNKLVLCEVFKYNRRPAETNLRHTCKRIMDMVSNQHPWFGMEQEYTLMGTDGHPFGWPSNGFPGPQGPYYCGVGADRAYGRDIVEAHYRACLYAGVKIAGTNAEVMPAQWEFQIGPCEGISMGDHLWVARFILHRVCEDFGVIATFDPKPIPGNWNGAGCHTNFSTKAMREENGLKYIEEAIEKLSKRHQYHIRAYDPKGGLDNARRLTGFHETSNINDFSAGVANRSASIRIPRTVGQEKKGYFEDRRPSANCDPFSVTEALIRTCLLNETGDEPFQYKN

[9] = target: BRD3, endogenous in HEK293T cells (UniProt Q15059)
Chain of BRD3, endogenous in HEK293T cells (Q15059 2-726): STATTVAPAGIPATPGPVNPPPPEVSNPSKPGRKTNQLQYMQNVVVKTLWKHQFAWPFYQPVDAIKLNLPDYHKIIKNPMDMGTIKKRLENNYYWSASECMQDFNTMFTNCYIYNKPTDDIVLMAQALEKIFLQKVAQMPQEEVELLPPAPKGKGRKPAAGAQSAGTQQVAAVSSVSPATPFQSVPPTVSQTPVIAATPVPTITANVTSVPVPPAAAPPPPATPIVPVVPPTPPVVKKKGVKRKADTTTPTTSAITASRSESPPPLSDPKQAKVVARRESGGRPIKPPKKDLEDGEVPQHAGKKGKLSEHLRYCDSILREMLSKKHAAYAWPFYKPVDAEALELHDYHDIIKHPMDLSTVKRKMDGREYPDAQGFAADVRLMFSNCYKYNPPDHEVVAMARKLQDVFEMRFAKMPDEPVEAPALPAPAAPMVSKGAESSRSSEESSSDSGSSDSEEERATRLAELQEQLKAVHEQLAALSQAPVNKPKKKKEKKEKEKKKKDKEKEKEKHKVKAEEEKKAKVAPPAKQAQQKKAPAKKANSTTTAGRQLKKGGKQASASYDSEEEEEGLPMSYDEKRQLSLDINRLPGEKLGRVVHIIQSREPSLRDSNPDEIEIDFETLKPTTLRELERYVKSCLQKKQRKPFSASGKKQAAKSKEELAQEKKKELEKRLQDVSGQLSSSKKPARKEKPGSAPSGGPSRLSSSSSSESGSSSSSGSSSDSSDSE

[10] = target: HIF1A, endogenous in HEK293T or A375 cells (UniProt Q16665)

DCAF15 fused to BirA biotin ligase (DCAF15-BirA)
differential enrichment in streptavidin pulldown (MS, triplicates, A3-HA-Ub), E7820 (10 µM) against DMSO [1]: the induced ubiquitinated substrate RBM39/CAPERα was produced as a result of the use of the E7820 molecular glue in conjunction with DCAF15-BirA and associated CRL4 E3 ligase

CRBN E3 ligase fused at its carboxy terminus to E. coli wild-type BirA biotin ligase (CRBN-BirA)
biotinylated, ubiquitinated V5-IKZF1 in streptavidin bead eluates (Western blot), Avi-Ub or A3-Ub, with pomalidomide (1 µM) [2]: both substrate peptide-tagged ubiquitin variants showed pomalidomide-induced ubiquitination of IKZF1 by E3 ligase CRBN | biotinylated, ubiquitinated V5-IKZF1 in streptavidin pulldown (Western blot, Avi-HA-Ub), with pomalidomide (1 µM) [2]: in conditions where pomalidomide was present, an increased amount of mono- and poly-ubiquitinated V5-IKZF1 was captured by the streptavidin beads | sensitivity in detecting pomalidomide-induced ubiquitination of V5-IKZF1 (Western blot quantification), A3-tagged ubiquitin [2]: 17.76 to 5.58 when comparing A3 to Avi | sensitivity in detecting pomalidomide-induced ubiquitination of V5-IKZF1 (Western blot quantification), Avi-tagged ubiquitin [2]: 17.76 to 5.58 when comparing A3 to Avi | ubiquitinated V5-IKZF1 captured by streptavidin beads (Western blot quantification, Avi-HA-Ub), pomalidomide against DMSO [2]: approximately 3.9-fold more ubiquitinated V5-IKZF1 substrate was captured by the streptavidin beads | differential enrichment in streptavidin pulldown (MS, triplicates, A3-HA-Ub), PROTAC dBET6 (1 µM) against DMSO [3]: CRBN-BirA; ubiquitinated substrates BRD2, BRD3, BRD4 observed in the upper right portion of the top left volcano plot | differential enrichment in streptavidin pulldown (MS, triplicates, A3-HA-Ub), PROTAC dBET6 (1 µM) against DMSO [4]: CRBN-BirA; ubiquitinated substrates BRD2, BRD3, BRD4 observed in the upper right portion of the top left volcano plot | # of PSMs in streptavidin pulldown (MS), A3-Ub, CC-885 [5]: 30 PSMs | # of PSMs in streptavidin pulldown (MS), A3-Ub, DMSO [5]: 0 PSMs | # of PSMs in streptavidin pulldown (MS), Avi-Ub, CC-885 [5]: 25 PSMs | # of PSMs in streptavidin pulldown (MS), Avi-Ub, DMSO [5]: 0 PSMs | biotinylated, ubiquitinated endogenous GSPT1 in streptavidin pulldown (Western blot, Avi-HA-Ub), with CC-885 (1 µM) [5]: mono- and poly-ubiquitinated GSPT1 captured by the streptavidin beads were only observed in conditions where CC-885 was present | biotinylation in streptavidin pulldown (MS, A3-HA-Ub, CC-885 1 µM), WT CRBN-BirA against loss-of-function mutants [5]: substrates GSPT1, GSPT2, VCL and CSNK1A1 were identified | differential enrichment in streptavidin pulldown (MS, triplicates, A3-Ub), CC-885 against DMSO [5]: GSPT1 and GSPT2 are observed to be the most upregulated proteins, both by amount and by statistical significance | sensitivity in detecting CC-885-induced ubiquitination of GSPT1 by CRBN (Western blot quantification), A3-tag [5]: when comparing A3-tag to Avi-tag (36.39 to 15.46, respectively) | sensitivity in detecting CC-885-induced ubiquitination of GSPT1 by CRBN (Western blot quantification), Avi-tag [5]: when comparing A3-tag to Avi-tag (36.39 to 15.46, respectively) | ubiquitinated GSPT1 captured by streptavidin beads (Western blot quantification, Avi-HA-Ub), CC-885 against DMSO [5]: 6-12 fold more ubiquitinated GSPT1 was captured by the streptavidin beads | biotinylation in streptavidin pulldown (MS, A3-HA-Ub, CC-885 1 µM), WT CRBN-BirA against loss-of-function mutants [6]: substrates GSPT1, GSPT2, VCL and CSNK1A1 were identified | # of PSMs in streptavidin pulldown (MS), A3-Ub, CC-885 [7]: 20 PSMs | # of PSMs in streptavidin pulldown (MS), A3-Ub, DMSO [7]: 0 PSMs | # of PSMs in streptavidin pulldown (MS), Avi-Ub, CC-885 [7]: 13 PSMs | # of PSMs in streptavidin pulldown (MS), Avi-Ub, DMSO [7]: 0 PSMs | biotinylation in streptavidin pulldown (MS, A3-HA-Ub, CC-885 1 µM), WT CRBN-BirA against loss-of-function mutants [7]: substrates GSPT1, GSPT2, VCL and CSNK1A1 were identified | differential enrichment in streptavidin pulldown (MS, triplicates, A3-Ub), CC-885 against DMSO [7]: GSPT1 and GSPT2 are observed to be the most upregulated proteins, both by amount and by statistical significance | proteins differentially biotinylated, VHL-BirA against CRBN-BirA (MS, triplicates, A3-tagged ubiquitin, HEK293T) [8]: Other identified proteins included GLUL, which is a reported a CRBN substrate | differential enrichment in streptavidin pulldown (MS, triplicates, A3-HA-Ub), PROTAC dBET6 (1 µM) against DMSO [9]: CRBN-BirA; ubiquitinated substrates BRD2, BRD3, BRD4 observed in the upper right portion of the top left volcano plot

VHL E3 ligase fused to E. coli wild-type BirA biotin ligase (VHL-BirA)
differential enrichment in streptavidin pulldown (MS, triplicates, A3-HA-Ub), PROTAC ARV-771 (1 µM) against DMSO [3]: VHL-BirA; ubiquitinated substrates BRD2, BRD3, BRD4 observed in the upper right portion of the top right volcano plot | differential enrichment in streptavidin pulldown (MS, triplicates, A3-HA-Ub), PROTAC ARV-771 (1 µM) against DMSO [4]: VHL-BirA; ubiquitinated substrates BRD2, BRD3, BRD4 observed in the upper right portion of the top right volcano plot | proteins differentially biotinylated by VHL-BirA against CRBN-BirA (MS, triplicates, A3-tagged ubiquitin, HEK293T) [10]: One of the best known VHL substrates, HIF1A was among the hits of differentially biotinylated proteins by VHL-BirA | differential enrichment in streptavidin pulldown (MS, triplicates, A3-HA-Ub), PROTAC ARV-771 (1 µM) against DMSO [9]: VHL-BirA; ubiquitinated substrates BRD2, BRD3, BRD4 observed in the upper right portion of the top right volcano plot

CRBN-BirA mutant D249Y
biotinylation in streptavidin pulldown (MS, A3-HA-Ub, CC-885 1 µM), D249Y mutant against WT CRBN-BirA [5]: a decrease in biotinylation by the loss-of-function CRBN-BirA mutants | biotinylation in streptavidin pulldown (MS, A3-HA-Ub, CC-885 1 µM), D249Y mutant against WT CRBN-BirA [6]: a decrease in biotinylation by the loss-of-function CRBN-BirA mutants | biotinylation in streptavidin pulldown (MS, A3-HA-Ub, CC-885 1 µM), D249Y mutant against WT CRBN-BirA [7]: a decrease in biotinylation by the loss-of-function CRBN-BirA mutants

CRBN-BirA mutant W386A
biotinylation in streptavidin pulldown (MS, A3-HA-Ub, CC-885 1 µM), W386A mutant against WT CRBN-BirA [5]: a decrease in biotinylation by the loss-of-function CRBN-BirA mutants | biotinylation in streptavidin pulldown (MS, A3-HA-Ub, CC-885 1 µM), W386A mutant against WT CRBN-BirA [6]: a decrease in biotinylation by the loss-of-function CRBN-BirA mutants | biotinylation in streptavidin pulldown (MS, A3-HA-Ub, CC-885 1 µM), W386A mutant against WT CRBN-BirA [7]: a decrease in biotinylation by the loss-of-function CRBN-BirA mutants
